In US7785835:

Legend:
vitronectin [1] = target: vitronectin (UniProt P04004); assay: competition binding assay, displacement of [^125I]-IGF-II from VN-coated wells (300 ng/well)
vitronectin [2] = target: vitronectin (UniProt P04004); assay: cell-based or functional assay

vitronectin, sequence (P04004 20-478 limits assumed): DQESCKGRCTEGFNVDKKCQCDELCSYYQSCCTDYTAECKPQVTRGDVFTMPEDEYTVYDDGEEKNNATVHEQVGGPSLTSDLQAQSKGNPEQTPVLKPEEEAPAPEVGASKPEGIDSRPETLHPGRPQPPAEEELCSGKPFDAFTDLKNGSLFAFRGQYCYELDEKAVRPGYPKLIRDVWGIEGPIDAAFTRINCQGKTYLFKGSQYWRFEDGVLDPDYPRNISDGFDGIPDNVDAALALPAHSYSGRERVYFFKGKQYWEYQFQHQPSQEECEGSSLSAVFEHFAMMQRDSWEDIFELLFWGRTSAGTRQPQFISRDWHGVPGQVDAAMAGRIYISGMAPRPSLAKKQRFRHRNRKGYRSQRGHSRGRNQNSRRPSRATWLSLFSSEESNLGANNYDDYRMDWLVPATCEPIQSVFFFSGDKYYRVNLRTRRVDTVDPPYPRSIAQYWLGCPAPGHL
insulin-like growth factor-II, sequence (P01344 25-91 limits assumed): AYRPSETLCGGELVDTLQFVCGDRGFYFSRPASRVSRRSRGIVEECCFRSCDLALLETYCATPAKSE

Q: With “insulin-like growth factor-II (from UniProt P01344 25-91) (ligand)” as the substance, how does the IC50 (vitronectin [1]) read?
A: 9.6 nM

Q: What about the incorporation of [^3H]-leucine into protein in human keratinocytes, % above control; 3 ng IGF-II pre-bound to VN coated wells (vitronectin [2]) of the same substance?
A: 19%

Q: And the incorporation of [^3H]-leucine into protein in human keratinocytes, % above control; 10 ng IGF-II pre-bound to VN coated wells (vitronectin [2])?
A: 29%

Q: What about the incorporation of [^3H]-leucine into protein in human keratinocytes, % above control; 30 ng IGF-II pre-bound to VN coated wells (vitronectin [2]) of the same substance?
A: 39%

Q: And the incorporation of [^3H]-leucine into protein in human keratinocytes, % above control; 100 ng IGF-II pre-bound to VN coated wells (vitronectin [2])?
A: 51%

Q: What about the incorporation of [^3H]-leucine into protein in human keratinocytes, % above control; 300 ng IGF-II pre-bound to VN coated wells (vitronectin [2]) of the same substance?
A: 70%

Q: What about the incorporation of [^3H]-leucine into protein in human keratinocytes, % above control; 1000 ng IGF-II pre-bound to VN coated wells (vitronectin [2]) of the same substance?
A: 101%

Q: What about the synergistic effect in protein synthesis above the calculated additive effect of VN alone and IGF-II alone (vitronectin [2]) of the same substance?
A: 5 to 46%
